B1: cathepsin V (CTSV): N221Q (protein)
parent chain: MNLSLVLAAFCLGIASAVPKFDQNLDTKWYQWKATHRRLYGANEEGWRRAVWEKNMKMIELHNGEYSQGKHGFTMAMNAFGDMTNEEFRQMMGCFRNQKFRKGKVFREPLFLDLPKSVDWRKKGYVTPVKNQKQCGSCWAFSATGALEGQMFRKTGKLVSLSEQNLVDCSRPQGNQGCNGGFMARAFQYVKENGGLDSEESYPYVAVDEICKYRPENSVANDTGFTVVAPGKEKALMKAVATVGPISVAMDAGHSSFQFYKSGIYFEPDCSSKNLDHGVLVVGYGFEGANSNNSKYWLVKNSWGPEWGSNGYVKIAKDKNNHCGIATAASYPNV
B2: cathepsin V (CTSV): 2NQ (protein)
parent chain: MNLSLVLAAFCLGIASAVPKFDQNLDTKWYQWKATHRRLYGANEEGWRRAVWEKNMKMIELHNGEYSQGKHGFTMAMNAFGDMTNEEFRQMMGCFRNQKFRKGKVFREPLFLDLPKSVDWRKKGYVTPVKNQKQCGSCWAFSATGALEGQMFRKTGKLVSLSEQNLVDCSRPQGNQGCNGGFMARAFQYVKENGGLDSEESYPYVAVDEICKYRPENSVANDTGFTVVAPGKEKALMKAVATVGPISVAMDAGHSSFQFYKSGIYFEPDCSSKNLDHGVLVVGYGFEGANSNNSKYWLVKNSWGPEWGSNGYVKIAKDKNNHCGIATAASYPNV
B3: cathepsin V (CTSV): N292Q (protein)
parent chain: MNLSLVLAAFCLGIASAVPKFDQNLDTKWYQWKATHRRLYGANEEGWRRAVWEKNMKMIELHNGEYSQGKHGFTMAMNAFGDMTNEEFRQMMGCFRNQKFRKGKVFREPLFLDLPKSVDWRKKGYVTPVKNQKQCGSCWAFSATGALEGQMFRKTGKLVSLSEQNLVDCSRPQGNQGCNGGFMARAFQYVKENGGLDSEESYPYVAVDEICKYRPENSVANDTGFTVVAPGKEKALMKAVATVGPISVAMDAGHSSFQFYKSGIYFEPDCSSKNLDHGVLVVGYGFEGANSNNSKYWLVKNSWGPEWGSNGYVKIAKDKNNHCGIATAASYPNV

The record followed here is paper PMC9043764.

A short description of the data set: Western blot of supernatant and whole cell lysate, A549. Conditions: glycan lost; control: wild type CTSV.
For the protein B1, the expression_or_secretion entry is “decreases”.

Regarding B2, the expression_or_secretion entry is “decreases”.

Consider B3, for which the expression_or_secretion entry is on record as “decreases”.
